The values that follow come from PMC7116888 (Nature, 2020).

Data set [1] has as its target T1, α-factor-bound Ste2 (Ste2 dimer purified with α-factor) (Saccharomyces cerevisiae, UniProt D6VTK4 1-431, N-acetylglucosamine modelled at Asn25). The data set is described as follows: cryo-EM structure.
The data set “cryo-EM structure” deals with the molecule itself. The data set is described as follows: cryo-EM structure.
The target of data set [2] is T2, Ste4-Ste18 dimer (βγ dimer) (Saccharomyces cerevisiae, UniProt P18851 1-423; P18852 1-110, C106S | C107S).
T2 sequence (looked up) 1: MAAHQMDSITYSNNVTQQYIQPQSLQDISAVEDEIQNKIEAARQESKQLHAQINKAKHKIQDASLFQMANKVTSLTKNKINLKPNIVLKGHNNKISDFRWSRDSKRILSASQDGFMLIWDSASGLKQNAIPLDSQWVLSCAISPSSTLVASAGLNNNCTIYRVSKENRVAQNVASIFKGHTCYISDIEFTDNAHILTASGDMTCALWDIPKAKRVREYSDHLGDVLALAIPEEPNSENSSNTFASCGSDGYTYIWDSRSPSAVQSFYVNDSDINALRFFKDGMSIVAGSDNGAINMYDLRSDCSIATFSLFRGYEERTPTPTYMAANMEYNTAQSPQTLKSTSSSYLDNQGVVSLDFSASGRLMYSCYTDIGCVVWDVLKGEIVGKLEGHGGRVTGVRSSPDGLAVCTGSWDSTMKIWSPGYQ
T2 sequence (looked up) 2: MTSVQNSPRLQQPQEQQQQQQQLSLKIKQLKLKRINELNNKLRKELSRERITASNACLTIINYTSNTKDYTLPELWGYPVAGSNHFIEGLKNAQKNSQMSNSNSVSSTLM
The data set is described as follows: SEC.

In data set [3] the target is T1, α-factor-bound Ste2 (Ste2 dimer …). The experiment in a line: SEC-MALS. For orientation: Size exclusion chromatography separates by hydrodynamic size, large species first.

B1: mini-Gpa1 heterotrimer (mini-Gpa1-Ste4-Ste18) (complex, Saccharomyces cerevisiae)
chain 1: TVSTQTIGDESDPFLQNKRANDVIEQSLQLEKQRDKNEIKLLLLGADNSGKSTVLKQLKLLHGGSGGSGGTTGITETEFNIGSSKFKVLDAGGQRSERKKWIHCFEGITAVLFVLDMSDYNRMHESIMLFDTLLNSKWFKDTPFILFLNKIDLFEEKVKSMPIRKYFPDYQGRVGDAEAGLKYFEKIFLSLNKTNKPIYVKRTCATDTQTAKFILSAVTDLIIQQNLKKIGII
chain 2: T2 sequence (looked up) 1
chain 3: T2 sequence (looked up) 2
With B1, in data set [1], the “stoichiometry N” value was 2 G protein heterotrimers per Ste2 homodimer.

B2: Ste2 (wild-type Saccharomyces cerevisiae pheromone receptor, residues 1-431), purified (receptor, UniProt D6VTK4 1-431, looked up)
chain: MSDAAPSLSNLFYDPTYNPGQSTINYTSIYGNGSTITFDELQGLVNSTVTQAIMFGVRCGAAALTLIVMWMTSRSRKTPIFIINQVSLFLIILHSALYFKYLLSNYSSVTYALTGFPQFISRGDVHVYGATNIIQVLLVASIETSLVFQIKVIFTGDNFKRIGLMLTSISFTLGIATVTMYFVSAVKGMIVTYNDVSATQDKYFNASTILLASSINFMSFVLVVKLILAIRSRRFLGLKQFDSFHILLIMSCQSLLVPSIIFILAYSLKPNQGTDVLTTVATLLAVLSLPLSSMWATAANNASKTNTITSDFTTSTDRFYPGTLSSFQTDSINNDAKSSLRSRLYDLYPRRKETTSDKHSERTFVSETADDIEKNQFYQLPTPTSSKNTRIGPFADASYKEGEVEPVDMYTPDTAADEEARKFWTEDNNNL
modifications: N-acetylglucosamine modelled at Asn25
Turning to B2, the “stoichiometry N” value in the data set “cryo-EM structure” came out at 2.

B3: wild type Gpa1 (S. cerevisiae G protein α-subunit) (natural protein, Saccharomyces cerevisiae, UniProt P08539 1-472, looked up)
chain: MGCTVSTQTIGDESDPFLQNKRANDVIEQSLQLEKQRDKNEIKLLLLGAGESGKSTVLKQLKLLHQGGFSHQERLQYAQVIWADAIQSMKILIIQARKLGIQLDCDDPINNKDLFACKRILLKAKALDYINASVAGGSDFLNDYVLKYSERYETRRRVQSTGRAKAAFDEDGNISNVKSDTDRDAETVTQNEDADRNNSSRINLQDICKDLNQEGDDQMFVRKTSREIQGQNRRNLIHEDIAKAIKQLWNNDKGIKQCFARSNEFQLEGSAAYYFDNIEKFASPNYVCTDEDILKGRIKTTGITETEFNIGSSKFKVLDAGGQRSERKKWIHCFEGITAVLFVLAMSEYDQMLFEDERVNRMHESIMLFDTLLNSKWFKDTPFILFLNKIDLFEEKVKSMPIRKYFPDYQGRVGDAEAGLKYFEKIFLSLNKTNKPIYVKRTCATDTQTMKFVLSAVTDLIIQQNLKKIGII
As to B3, in data set [2], the binding result is recorded as “binds”.

B4: wild type Gpa1 heterotrimer (Gpa1-Ste4-Ste18) (complex, Saccharomyces cerevisiae)
chain 1: B3 chain
chain 2: T2 sequence (looked up) 1
chain 3: T2 sequence (looked up) 2
Take B4: the “stoichiometry N” value in data set [3] was determined as 2 G proteins per Ste2 dimer.

The term stoichiometry N denotes a count of units in the complex or per binding partner.
